Experiments:
[1] = biological target: human OX40 expressed on the cell surface (human) (UniProt P43489); test: cell-based or functional assay
[2] = biological target: recombinant OX40-Fc protein (R & D, Cat 3388-OX) (human) (UniProt P43489); test: blocking ELISA: OX40-Fc coated, antibody titrated, competitor OX40L at 50 ng/ml
Chain of recombinant OX40-Fc protein (R & D, Cat 3388-OX) (human) (P43489 29-214): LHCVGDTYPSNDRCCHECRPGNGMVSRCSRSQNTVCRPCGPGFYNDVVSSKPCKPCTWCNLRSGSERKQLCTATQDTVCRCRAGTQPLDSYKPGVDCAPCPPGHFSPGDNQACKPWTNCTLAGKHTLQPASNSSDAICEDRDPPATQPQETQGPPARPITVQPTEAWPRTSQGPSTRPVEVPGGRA

Chain of human OX40 expressed on the cell surface (human) (P43489 29-277): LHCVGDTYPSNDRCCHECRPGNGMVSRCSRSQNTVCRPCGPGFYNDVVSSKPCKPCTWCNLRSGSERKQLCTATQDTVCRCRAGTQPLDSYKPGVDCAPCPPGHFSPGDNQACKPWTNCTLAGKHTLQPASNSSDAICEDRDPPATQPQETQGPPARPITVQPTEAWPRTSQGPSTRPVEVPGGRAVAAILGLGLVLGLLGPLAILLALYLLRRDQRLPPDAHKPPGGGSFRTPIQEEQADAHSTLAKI

blocking of OX40L-mediated T cell activation, IFNγ secretion, IC50 [1]: 1.1 nM
IC50 [2]: 0.3 nM
maximum inhibition rate [2]: 50%
B1: GBR830 (antibody, from another filing, V domains shown)
VH: QVTLKESGPALVKPTQTLTLTCSFSGFSLSTSGMGVGWIRQPPGKALEWIAHIWWDDDKYYNTALKTRLTISKDTSKNQVVLTMTNMDPVDTATYYCARIDWDGFAYWGQGTLVTVSS
VL: EIVLTQSPATLSLSPGERATLSCRASSSVSYMHWYQQKPGQAPRPWIYATSNRATGIPARFSGSGSGTDYTLTISSLEPEDFAVYYCQQWSSNPWTFGQGTKVEIKR

Source: patent US20230151105A1
